The values below come from US20260263521A1 (AIMED BIO, published 2026).

The target in test [1] is T1, human CD200RLa (Sino Biological, 11620-H08H) recombinant protein (human, UniProt Q6Q8B3 24-239).
T1 construct: Bought; construct not described
T1 sequence (looked up): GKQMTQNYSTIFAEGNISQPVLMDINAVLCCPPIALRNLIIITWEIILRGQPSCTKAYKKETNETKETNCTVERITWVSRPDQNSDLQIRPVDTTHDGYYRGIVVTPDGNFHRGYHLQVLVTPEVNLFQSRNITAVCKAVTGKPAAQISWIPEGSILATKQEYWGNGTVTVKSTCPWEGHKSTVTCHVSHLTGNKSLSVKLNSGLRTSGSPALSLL
The experiment in a line: ELISA, plate-bound human CD200RLa (2 ug/mL), antibody 0.0192-300 nM, O.D 450 nm; panel 'recombinant human CD200RLa'. The essentials:
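Plates coated overnight (16 h, 4° C) with human or cynomolgus CD200RLa recombinant protein, blocked with 3% skim milk; bound antibody detected by TMB colour development, reaction stopped before reading.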

Test [2] addresses T2, mouse CD200R1 protein (R&D systems, 2554-CD) (mouse, UniProt Q9ES57 26-238, limits assumed).
T2 construct: Bought; construct not described
T2 sequence (looked up): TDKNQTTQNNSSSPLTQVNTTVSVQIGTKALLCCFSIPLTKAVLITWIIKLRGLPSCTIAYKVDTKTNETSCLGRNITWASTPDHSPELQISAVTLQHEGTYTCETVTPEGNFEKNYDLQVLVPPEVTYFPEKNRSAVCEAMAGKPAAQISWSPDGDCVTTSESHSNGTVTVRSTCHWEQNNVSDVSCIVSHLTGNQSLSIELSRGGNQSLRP
As to the kind of experiment: ELISA, plate-bound mouse CD200R1 (2 ug/mL), IgG 0.0192-300 nM, OD 450 nm; panel 'mouse CD200R1'. The procedure, abridged:
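Wells coated with antigen at 2 μg/mL (4 °C, 16 h) and blocked with 3% skim milk before IgG addition. Bound antibody developed with TMB, reaction stopped, absorbance read at 450 nm.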

The target in test [3] is T3, human CD200R1 expressed on cells (Jurkat-CD200R1, U937-CD200R1, HH cells) (human, UniProt Q8TD46 25-348).
T3 construct: whole, on cells; also called HH (CRL-2105); cell surface-expressed CD200R1
T3 sequence (looked up): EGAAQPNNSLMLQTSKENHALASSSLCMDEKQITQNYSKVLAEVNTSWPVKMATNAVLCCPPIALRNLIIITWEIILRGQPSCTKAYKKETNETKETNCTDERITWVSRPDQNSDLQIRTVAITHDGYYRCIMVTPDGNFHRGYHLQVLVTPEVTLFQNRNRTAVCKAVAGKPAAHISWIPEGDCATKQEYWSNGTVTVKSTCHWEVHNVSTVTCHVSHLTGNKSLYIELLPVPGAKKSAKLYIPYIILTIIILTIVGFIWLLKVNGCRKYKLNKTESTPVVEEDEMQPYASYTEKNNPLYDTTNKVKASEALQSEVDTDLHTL
As to the kind of experiment: flow cytometry on Jurkat-CD200R1 and HH cells, 500 nM antibody in IgG1 form. The procedure: The cells were washed by centrifugation at 130 g for 5 minutes. The cells were seeded onto 96-well round-bottom plates (SPL, #34296) at a density of 1×10⁵ cells/well in Flow cytometry staining buffer (Invitrogen, #00-4222-26) or FACS buffer. […] After incubation for 1 hour at 4° C., the cells were treated with Alexa-647 Goat anti-human IgG (H+L) cross-adsorbed secondary antibody (Invitrogen, #A21445) and incubated at 4° C. for an additional 30 minutes. After washing twice with FACS buffer, flow cytometry analysis was performed using a Novocyte Flow cytometer (Agilent).

Test [4] deals with T4, Hybrid CD200R1 MH (mouse;human, UniProt Q9ES57;Q8TD46).
T4 construct: single domain; mouse D1 over human D2; also called MH hybrid domain; P001 MH domain
T4 sequence (hybrid extracellular part, looked up): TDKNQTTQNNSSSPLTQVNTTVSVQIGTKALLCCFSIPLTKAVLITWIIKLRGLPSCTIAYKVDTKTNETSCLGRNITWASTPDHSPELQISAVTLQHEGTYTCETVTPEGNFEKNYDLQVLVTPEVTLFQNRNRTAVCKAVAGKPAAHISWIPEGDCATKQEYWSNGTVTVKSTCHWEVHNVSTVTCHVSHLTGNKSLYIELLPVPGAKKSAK
As to the kind of experiment: ELISA, plate-bound MH hybrid (1 ug/mL), antibody 0.0192-300 nM, O.D 450 nm; panel 'P001 MH domain-1)'. The method, then:
(§1) Recombinant proteins were produced from the extracellular Ig-like V-type domain and Ig-like C2-type domain of human CD200R1, each designed as human-mouse (HM hybrid domain) and mouse-human (MH hybrid domain) recombinant proteins. A 96-well plate was coated at a concentration of 1 μg/mL with each protein at 4° C. for 16 hours and blocked with 3% skim milk. […] After color development with TMB substrate solution (Thermo Scientific, 34029, 1-Step™ Ultra TMB-ELISA Substrate Solution), the color reaction was stopped with a stop solution (Invitrogen, SS04, ELISA Stop Solution), and the absorbance was measured at an O.D. of 450 nm.

Test [5] addresses T5, human CD200R1 recombinant protein (construct not stated) (human, UniProt Q8TD46 27-266, limits assumed).
T5 sequence (looked up): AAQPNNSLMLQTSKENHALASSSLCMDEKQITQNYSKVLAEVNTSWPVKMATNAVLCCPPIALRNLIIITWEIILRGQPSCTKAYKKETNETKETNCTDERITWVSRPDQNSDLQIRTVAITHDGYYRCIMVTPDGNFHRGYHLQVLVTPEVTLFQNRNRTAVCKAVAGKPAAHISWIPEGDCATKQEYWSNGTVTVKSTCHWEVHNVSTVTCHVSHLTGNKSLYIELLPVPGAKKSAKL
As to the kind of experiment: ELISA on human CD200R1, O.D 450 nm, 0.0192-300 nM; panel 'P001_CD200R1 human 1'. The method, then:
96-well plates were coated with human CD200R1 (R&D systems, 3414-CD) and mouse CD200R1 protein (R&D systems, 2554-CD) at a concentration of 2 μg/mL at 4° C. for 16 hours and then were blocked with 3% skim milk.
Color was developed with a TMB substrate solution (Thermo Scientific, 34029, 1-Step™ TMB-ELISA Ultra Substrate Solution). The color reaction was stopped with stop solution (Invitrogen, SS04, ELISA Stop Solution). The absorbance was measured at an optical density of 450 nm.
The secondary engineered antibodies were evaluated by ELISA in the same manner as in Examples described above.

Test [6] concerns the target T3, human CD200R1 expressed on cells …. The experiment in a line: flow cytometry, HH cells; drawn table, row EC50.
Test [7] has the same target. As to the kind of experiment: flow cytometry, HH cells; drawn table.
Test [8] has as its target T6, monkey CD200RLa (Sino Biological, 11576-C02H) recombinant protein (monkey (cyno), UniProt A0A2K5W6R0 30-246).
T6 construct: Bought; construct not described; also called cyno CD200RLa
T6 sequence: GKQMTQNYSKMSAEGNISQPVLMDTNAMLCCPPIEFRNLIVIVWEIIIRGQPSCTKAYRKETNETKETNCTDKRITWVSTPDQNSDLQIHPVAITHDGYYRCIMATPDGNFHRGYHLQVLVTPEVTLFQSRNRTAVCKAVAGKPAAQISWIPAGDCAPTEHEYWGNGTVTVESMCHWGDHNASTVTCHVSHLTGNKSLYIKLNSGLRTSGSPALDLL
The experiment in a line: ELISA, plate-bound monkey CD200RLa (2 ug/mL), antibody 0.0192-300 nM, O.D 450 nm; panel 'recombinant cynomolgus CD200RLa/Fc'. The procedure: 96-well plates were coated with human CD200RLa (Sino Biological, 11620-H08H) and monkey CD200RLa (Sino Biological, 11576-C02H) recombinant proteins at a concentration of 2 μg/mL at 4° C. for 16 hours, and blocked with 3% skim milk for 1 hour. […] Color was developed with a TMB substrate solution (Thermo Scientific, 34029, 1-Step™ Ultra TMB-ELISA Substrate Solution). The color reaction was stopped with stop solution (Invitrogen, SS04, ELISA Stop Solution).

Test [9] addresses T4, Hybrid CD200R1 MH. The experiment in a line: ELISA, plate-bound MH hybrid (1 ug/mL), antibody 0.0192-300 nM, O.D 450 nm; panel 'P001 MH domain-2)'. The procedure:
as §1

Test [10] concerns the target T4, Hybrid CD200R1 MH. The experiment in a line: ELISA, plate-bound MH hybrid (1 ug/mL), antibody 0.0192-300 nM, O.D 450 nm; panel 'P001 MH domain-4)'. The procedure: as §1
The target of test [11] is T5, human CD200R1 recombinant protein …. The experiment in a line: hybridoma ELISA on human CD200R1.

“And” between values parts separate entries of the source, which are not always exact repeats. Identical values can stand only once.

B1: P001004 (IgG) (antibody, V domains shown)
VH: EVQLLESGGGLVQPGGSLRLSCAASGFTFSDYYMSWVRQAPGKGLEWVSGIYPGDGSIYYADSVKGRFTISRDNSKNTLYLQMNSLRAEDAAVYYCAKGLDLYEPMAFDYWGQGTLVTVSS
VL: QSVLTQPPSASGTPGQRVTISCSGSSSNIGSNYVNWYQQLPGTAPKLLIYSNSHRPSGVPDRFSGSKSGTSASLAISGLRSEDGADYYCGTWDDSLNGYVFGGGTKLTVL
For the molecule B1, the binding result (in [1]; in test [2]; with Hybrid CD200R1 MH [4]) was “no binding (tested: 300 nM)” throughout. Also, the “MFI normalized to P001017 (chimeric OX108), %” value (shortened to “MFI normalized to P001017 … %”) in test [3] is > 50%.

B2: P001018 (huOX108.1) (antibody, V domains shown)
VH: QVQLVQSGAEVKKPGASVKVSCKASGYTFTSYVMHWVRQAPGQGLEWMGYINPYNDDTNYNEKFKGRVTMTRDTSTSTVYMELSSLRSEDTAVYYCAREDYYGSRWGYWGQGTLVTVSS
VL: DIVLTQSPASLAVSPGQRATITCRASKSVSTSGYSYMHWYQQKPGQPPKLLIYLASNLESGVPARFSGSGSGTDFTLTINPVEANDTANYYCQHSRELLTFGQGTKVEIK
notes: also called humanized antibody P001018
With B2, in test [5], the “EC50 (read off the curve)” value is ~2 nM and ~5 nM. In test [6], this molecule gave a concentration for a half-maximal effect (EC50) of 6.64 nM. For the same molecule, the binding result in [1] was “no binding (tested: 300 nM)”. The “MFI normalized to P001017 … %” value in [3] is > 50%. In test [7], the “Geo mean (%) at 0.05 nM” value amounted to 2.1%, the “Geo mean (%) at 0.19 nM” value was 6.1%, the “Geo mean (%) at 0.78 nM” value came out at 15.8% and the “Geo mean (%) at 3.125 nM” value was 35.2%. Moreover, in test [7], the “Geo mean (%) at 12.5 nM” value worked out at 65.7%, the “Geo mean (%) at 50 nM” value worked out at 79.7%, the “Geo mean (%) at 200 nM” value turned out to be 96.9% and the “Geo mean (%) at 800 nM” value is 100%.

B3: P001008 (IgG) (antibody, V domains shown)
VH: EVQLLESGGGLVQPGGSLRLSCAASGFTFSSYDMSWVRQAPGKGLEWVSWISHGGGSIYYADSVKGRFTISRDNSKNTLYLQMNSLRAEDTAVYYCARDAPALMHSLFDYWGQGTLVTVSS
VL: QSVLTQPPSASGTPGQRVTISCSGSSSNIGSNHVNWYQQLPGTAPKLLIYYDSQRPSGVPDRFSGSKSGTSASLAISGLRSEDEADYYCGSWDASLNGYVFGGGTKLTVL
B3: the binding result (in test [8]; in test [1]; with Hybrid CD200R1 MH [9]; in [2]) was “no binding (tested: 300 nM)” throughout. In addition, the “MFI normalized to P001017 … %” value in test [3] is > 50%.

B4: P001010 (IgG) (antibody, V domains shown)
VH: EVQLLESGGGLVQPGGSLRLSCAASGFTFSNYAMSWVRQAPGKGLEWVSSISPGGGSIYYADSVKGRFTISRDNSKNTLYLQMNSLRAEDTAVYYCARDPGQMFWPLFDYWGQGTLVTVSS
VL: QSVLTQPPSASGTPGQRVTISCTGSSSNIGSNNVSWYQQLPGTAPKLLIYDDSHRPSGVPDRFSGSKSGTSASLAISGLRSEDEADYYCGSWDASLNGYVFGGGTKLTVL
As for B4, the binding result (in [1]; with Hybrid CD200R1 MH [9]; in [2]) was “no binding (tested: 300 nM)” in each case.

B5: 6A10 (hybridoma clone) (antibody, V domains shown)
VH: QLQQSGAELVRSGASVKLSCTASGFNIKDYYLHWIKQRPEQGLEWIGWIDPENGDTEYAPKFQGKATMTADTSSNTAYLQLISLTSEDAAVYYCFAGGSYWGQGTSVTVSS
VL: DIVMTQSPSSLSVSAGEKVTMSCKSSQSLLNSGNQKNYLAWYQQKPGQPPKLLIYGASTRESGVPDRFTGSGSGTDFTLTISSVQAEDLAVYYCQNDHSYPYTFGGGTKLEIK
For the molecule B5, the binding result with Hybrid CD200R1 MH [10] is recorded as “no binding (tested: 300 nM)”. Also, the “ELISA O.D.” value in test [11] is ≥ 1.5 O.D.

B6: 1H10 (hybridoma clone) (antibody, V domains shown)
VH: QVQLQQPGAELVKPGTSVKLSCKASGYNFTSYWINWVKLRPGQGLEWIGDINPGSGSTNYNEKFRSKATLTVGTSSSTAYMQLSSLASEDSALYYCAREDYYGSRFFYWGQGTLVTVSA
VL: DVVMTQTPLSLPVSLGDQASISCRSSQSLVHSNGNTYLHWYLQKPGQSPKLLIYKVSNRFSGVPDRFSGSGSGTDFTLKISRVEAEDLGVYFCSQSTHVTFGAGTKLELK
Consider B6, for which the binding result with Hybrid CD200R1 MH [10] is on record as “no binding (tested: 300 nM)”. The “ELISA O.D.” value in test [11] was ≥ 1.5 O.D.
